Paper PMC8642242 (Nature Immunology, 2021)

Biological target: SARS-CoV-2 S protein, full length (IL1/2020), on 293F-Spike-S2A cells (SARS-CoV-2, USA/IL1/2020 (S identical …, UniProt P0DTC2))
Assay: flow cytometry on cells
Settings: one partner purified

| Binder | binding result |
| --- | --- |
| WRAIR-2039 LALA-PG (human IgG1 with the triple Fc mutation LALA-PG) (antibody, V domains shown) VH: QVQLVQSGAEVKKPGASVKVSCKVSGYMLIELSMHWVRQAPGKGLEWMGGFDPEDAETIYAQEFQGRVTMTEDTSTDTAYMELSSLRSEDTAVYYCTTGPAVTNRPADYWGPGTLVTVSS VL: QSVLTQPPSVSGAPGQRVTISCTGSSSNIGASYDVHWYQQLPGTAPKLLIYANSNRPSGVPDRFSGSKSGTSASLAITGLQAEDEADYYCQSYDSSLSYSVVFGGGTKLTVL | binds |
| WRAIR-2173 LALA-PG (human IgG1 with the triple Fc mutation LALA-PG) (antibody, V domains shown) VH: QVQLQESGPGLVKPSETLSLTCSVSGDSISSSDYSWGWIRQPPGKGLEWIGTIYYIKNTYYNPSLRSRVTLSVDTSKNLFSLKLSSVTAADTAVYYCARERPPFDVVVVPAARPYNWFDPWGLGTLVIVSS VL: QSVLMQPPSVSGAPGQRVTISCTGSSSNIGAGYDVHWYQQLPGTAPKLLIYGNNNRPSGVPDRFSGSKSGTSASLAITGLQADDEADYYCQSYDSSLSGSKVFGGGTKLTVL | binds |
| WRAIR-2025 LALA-PG (human IgG1 with the triple Fc mutation LALA-PG) (antibody, V domains shown) VH: QVHLVQSGAEVKKPGASVKVSCKVSGYTLVELSVHWVRQAPAKGLEWIGGFDPEDGETIYAQKFQGRVTMTEDTSTDTAYMELTNLRSEDTAVYYCVTSQPFVSPNWFDPWGQGTLVTVSS VL: QSALTQPASVSGSPGQSITISCTGTSRDVGAYNYVSWYQQHPGKAPKLMIYEVTTRPSGVSNRFSGSKSGNTASLTISGLQAEDEADYYCSSYTGSRTLVFGTGTKVTVL | binds |
| WRAIR-2123 LALA-PG (human IgG1 with the triple Fc mutation LALA-PG) (antibody, V domains shown) VH: EVQLVESGGGVVQPGRSLRLSCAASGFTFSSYAMHWVRQAPGKGLEWVAVLSYDGSNKYNADSVKGRFTISRDNSKNTLYLQMNSLRVEDTAMYYCARDGVSVTMVRGVIGPLCDYWGQGTLVTVSS VL: not shown | binds |
| WRAIR-2004 LALA-PG (human IgG1 with the triple Fc mutation LALA-PG) (antibody, V domains shown) VH: QVQLVQSGAEVKKPGASVKVSCKASGYTFTGYYMHWVRQAPGQGLEWMGRINPSSGGTNYAQKFQGRVTMTRDTSISTAYMELSSLRSDDTAVYYCATDGDDGENWFDPWGQGTLVIVSS VL: DIQMTQSPSSLSASVGDRVTITCRASQGISSWLAWYQQKPEKAPKSLIYAASSLQSGVPSRFSGSGSGTDFTLTISSLQPEDFATYYCQQYNSYPYTFGQGTKLEIK | binds |
